Laboratory results as given in the domain aggregation screens of Martell et al. (2025).

Experiment: soluble fraction after stress (log2 fold change); higher = more stays soluble; pooled small domains, quantitative proteomics
Settings: stress: pH 4
In short: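 Values are log2 fold changes, and higher ones mean more of the domain stayed soluble. Each fold change reflects the soluble amount of a domain after acid stress and is taken as a measure of aggregation propensity. The stress was pH 4, applied to pooled custom libraries of small protein domains analysed by high-throughput quantitative proteomics.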

| Sequence | soluble fraction (log2) |
| --- | --- |
| HMSETVYQYVARQLRDMLGSGEIPVGQQLPTYRELAKRFQVSLSVIQRAMRQLKAEAVVSIAHGQGVKAVR | -0.176 |
| HMHQALLEQSAEHAQQVKAYELLLTAERALDEENTEAFLSAMKSLKPLAENLDAKGKALYQELLPFVTEA | -0.425 |
| HMTSVRVPVKKEIWFWAIKESQRDLNEILARFPKMDKWINQEENPTFNQLEKVAKFLRVPFGYMFLDKPPK | 0.332 |
| HMSGLLTTSKLAQKHKMKTEPMLEKLTAAGYLEWRDDKHSLTEQGKKAGGQFKTGRFGAYFLWPEDLV | 0.116 |
| HMDIFLPDVKGYDLIPSFRRHLPDIDVIAMTGYNTRALESAVRQQDVLFYMIKPFEASQLKEILEHLVK | -0.279 |
| HMVEVPNVIGMTKPELTQQFVNLKLDGSGEGDVVVQQSPSEGSKVKEGSTVRVYFG | 0.137 |
| HMIKILGSAYRHGLDDDDILRAWNYHIQEFFEGEDPEKIVRLGFDTHGRLLEIGGEIYPGGGEKIFHAM | -0.719 |
| HMQDELSSSVIEEAVVVLLLRAANIDGKKDEQEIEAIKRLIIQQFNYDEEKADILITSASEK | -0.191 |
| HMSGYAIVNNQPGRTLNLRNSPSQSNNIIGQIPSGTRLQLISRGETWSEVIFQTTRGFVMSSFLRFET | -0.17 |
| HMNMEPNWLKWAKQLAALAQNGLTYSDNPYEIERYEHIRRIAAEMMAEGFELDTKTILELFPREKG | -1.41 |
| HMFFFILNKGAKSGGEITHAVLNGSIVSKPAGWDAFHGLVLAKEKLSSEEIQRQMKELGVEMEIVPL | -1.18 |
| HMANDNFPLKLGSKGPRVLQLKTMLIQSLSNDALPKGRSSDAFDSELEALLSRNNLPTVIDETNFRVLTK | 0.0149 |
| HMKDLTIRQQQFLNYIKDHLSLTGFPPTRSDIANEMGFKSPNAAEDHLRALARKGAIEIVPGTSRGIRLP | 0.0783 |
| HMADKSLLELPGLDGDKVSALVTAGVRNVNDLADLATDELVEKTGFDEKTAADLIIAARAVVY | -0.283 |
| HMGKELSTVVVPDLTGLSVLEARNVLTKVGLQLTPSGAGIAFKQIPTPGTRLTLGATVTVYFVATGY | -1.27 |
| HMKPNEYVSGETFPYLGKNYRLKVLHGSENSVRLKGGYFITTISNRDSQLSTVKSLLEDWYQTHADK | -0.163 |
| HMAPQQARAAKTRVKLLDAAATVVRRDGIQAMTLARVAEEAGVSKGGLLHHFGSKEELVTGMLEQ | -0.402 |
| HMDGQGIRSITPEYYLSDSATKMPDASSSGWKSVPDDYIDKHYYWVRSKILWDDGTYTTTTPVL | -0.291 |
| HMKGERHNKILELIQQHAIDRQEDLLRYLKEAGFQVTQATVSRDIRELHLVKVAAGGGQYRYVSAAAAS | -0.255 |
| HMIMVAGHLQIKKGKYYMVLELKSESGERKTKWISTGLSAKGNKRKAEAMLEEARENYQSTDA | -0.0361 |
| HMGAQRDFELQLIDVIRQNPGLTYKAYGEKLSVSQATVKRLVAKLKETGSIRREGSQRKGTWIITDD | 0.252 |
| HMQTQYIVDTKTTLLVRTGPGKSNSQFGRLKNGETINVYAIKNGWAEISYNGKTGYVSEQYIKLA | 0.327 |
| HMSVPRPSAVEVTSLVTGVRDLLPHLGEGYVERVLVEFGFKVDETINALLEGNLPKHLQDLDPSLTKEI | -1.25 |
| HMNFTMERLYTKELTSEDIDEIKKELNSMGYTEGVEFNIIKGDKTSFIMAERQLKAKMLSHLSDLGLPRGA | 0.0335 |
| HMVANDQILNQYGISDREAEIIGLLIEGLSNQQIAKQLYISPNTVKTHIKNIYAKVGVNNRLQLFSLLK | -0.549 |
| HMAQFNELLFELRQDRKMTQEDLAKVLFVTSGTISNYENGVHLPDIEKLISLADFFGVTTDYLLG | -0.726 |

| Sequence | soluble fraction (log2) |
| --- | --- |
| HMNIMNINQALNVLNLKGTVSKEELAKAYKKMAIKYHPDRNPTGVEMMKVINSAYEFLKGLNLEEIKH | 0.252 |
| HMSYQFKIKNNAAVEVTVSEKNNLLGSTYGDKATVAAGMEKNVTFYTDKPDVVVDTNGNFTITVHDKEIII | -0.221 |
| HMISKTFEINEDNINNRLDIFLANQFDNLSRGIVQKLIESHSVSVSGNFVEKDYKLKLGDIIDVEINLS | -0.853 |
| HMDSTSEILKVIQNIVKKEDPYHPLSDDKISNLLNDLDYQISRRTVAKYRDILTIPSSSKRRKL | -0.0776 |
| HMGRGSEDEQMRGLAVILAEQKQIMQTLGVENEVVKPEQYINTLKRMAELNGFKDTDQFFSIPQ | -0.587 |
| HMPELPPHELLRALMVEHDIKQSELPEVGPQPVVSDVLAGKRALNLRQVAALAARFHVPMEVFT | -0.015 |
| HMSLMHEESLKNIRRFINSLPESLRTAFTLREQDGLSYEEIGVITETPIGTVRSRIFRAREAILEHIKKEL | -0.445 |
| HMNQEFRMPNAIKGVELSEENKQQLTQGEKVFLEGMTSAKGSLFDAYVYIDQEKKTLAFDFPEK | -0.792 |
| HMKLTNIQYETLKVVVESRAKIDEEEGITIKLEDIKKYIDQAISFTGLVGDDEDYKKLFADMEYRFKIQ | -0.925 |
| HMPEVAHTIDMEAVNKHWDELPEREQRILVMRFYGNLTQTEIGERLGISQMHVSRLLARALSHLKSRLLD | -0.046 |
| HMLLSEPSVLKFNDDNSYEIVSGFLTEYKDKIVKIERRYKKATVKITVAGEEKEIKVSFVEDTE | -1.13 |
| HMRAPEIEAARSDLDVGQTVQIVRHLHGNQYEVFYRGAQWQAEAVGSSGANDAQTAVITGKNGNILLIQI | -0.297 |
| HMAKLGITQREQEVLQLLVTGKTYKEIAAELFISLPTVKTHVSNIYSKAKVRNRLELSNLINYI | -1.22 |
| HMKELTELIEKIKLRRLELGLSYQELSDLTGINKSTLQRYETGFIKKVPINQVQIIAKALNVTPGYLMG | -0.718 |
| HMTAQLAAQERTHALDMFMGGYKFSSKPAENGVRAEFEKKNFTLEDGKFLGGDEFMKSLMENDDYKGAFV | -0.509 |
| HMVQIVINKEVQTTSQTILRENAGTSSRNIGYVDPNVKLRATLDRNSFYFIPEKKGWIMKSRVKLIEDLS | 0.0552 |
| HMGESFPYVAYATDSVRLRARPSSSATILTVIRKGDAVLITGADGSYKIVEYEGRKGYVVSAFLSSQET | -0.00452 |
| HMNMSVVEKVIQQISNPGRDSLIPILQAVQEEEGFISRESVIEIGKALDLPASKIYGVATFYNQFR | -0.543 |
| HMQITNEGQIKLVISEVLNENQEQKKQYLSGKEQVLGYLIGKVMQKTKGKANPKLVNDLMIKELS | 0.217 |
| HMQISDDSELIKIVDNILANSQKQIDDYHNGKTNLFGFFVGQVMKETKGKANPVKVNEILKDKL | 0.102 |
| HMGVTDLFAVLGFPRSPWLDAEELKQRHHALMADEASANSSPTILNEARRTLQNPALRIRHFLALEFPDH | -0.82 |
| HMDEFHLSERERQILNLLVLGHTYKHIASDLNIAYATVNKHVSNVYAKLRVQSASEAVALAIRKGL | -0.58 |
| HMIAIGDDARLDDAARFFRIAEDSYAAGDYRKSKENYIEARKLYAELGDHEKVNLINSKISAIDSIT | -0.0121 |
| HMKPALFSADELNRLYRYGLSLTGERDRAYDLLQTALEKYLRQSQAPANAMRYVRKIMHNQFIDDYR | -0.0906 |
| HMDIRVAHVDDDMSFGEAFAQARSQVGPGGVFEWHGKLYGTYTAEEWASMSPAERSQYQQAVFN | 0.105 |
| HMATPTMEDYIEVIYSLVKTKGYARSADIAEKLEVYPSTVTKMLKKLDAEGYIVYEKYRGIALTDIGKKMG | -0.189 |

| Sequence | soluble fraction (log2) |
| --- | --- |
| HMRTPLTGREEQVATLIGRGMTNSEIAESLSVDESTVKTHIGSILRKVHLRDRLQVALWFHGLPIE | -0.354 |
| HMIIDTELMTRVMKFGFSQADASDLVAQHSDDLLRTAISRVEARAESKGMTPLETPAGYFRWTLQDLVRNP | -2.02 |
| HMPIQLLSEKYMDEHWDELDKDEVSLYQNMSIRFLLKHEDDINWKLYSTNPFISIDTIDFFKDKISWVNI | -1.45 |
| HMDANAYTYKVSEDTDTRTGEKIFLVKVAEKLSRKEYIVVNNYMKSLGSYYSKFKHAFLFKENPTEKL | -0.246 |
| HMFVTFFHELKSAGVPVSLREYLTLMEAMDRDLASRRVEEFYYLARTALVKDERNLDKFDRVFGHVFKGL | -1.69 |
| HMRSLVDRSVQAVTDHIRENALRVGDSLPGEAYFATSLGVSRAVMREAFGALAALRVIDVGNGRKPRVGAI | -0.438 |
| HMVANLPFNYKVYAKKGKLYVVISYKDSNGKYKKKWIRTGLDEGTKKKEVNTVADQIAAEYYSSMRLE | 0.0398 |
| HMVFLPDEIFRLKVIKAGEGPEQGVGYLDDGTMVVIEGARDRIGDELEVRVTSTLQTNAGKMIFTKFE | -2.12 |
| HMTELNNTQRAAVLLLALDEDSAAEVFKHLSAREVQEVSQEMAKLGNISHDQMRQVLDDFYDESEQF | -1.01 |
| HMAVQEDAGLAREDLPPEVQGLLQEREAARAAKDWGKSDALRRQLQDLGYAIKDTAQGMEIKRT | 0.101 |
| HMLQKVELSDNEKFIFDSLQKEQKMALLRLKELVNLSNKAWDVSVKNLTKQGLVKVTKIDEELLIEI | -1.24 |
| HMRRMTEEQSKLFQGLVSIVQTTLVADMEKGAVTPLLIAEKVDFVADNLYPGKDIDRKEAVAELIRRFSLW | -0.875 |
| HMENIDVGQDYKVTMNTIQNLMKTGLVTGTQYKELLREMGVHSGMGAITAQQHQIALDFLNKTMDSA | -0.444 |
| HMKKTPLSELTNRAVELFIETVFMERNYSVSSQRQFISALKIFTVFYPQTKIHNLSLERLQSSFDKLLN | -0.564 |
| HMAQRFDLGDKLNPQSSEFEYLGTSSRTGVSTYRYKNVPTQLFFGRQIGDIVVGVRRGMITLTIYNL | 0.146 |
| HMSHRVGDVVELTAVRMNDQGVFLDAGTGNTSDDILLHKHQMTSPVSVGDKVKVQLYLDAKNRITASMKL | -0.199 |
| HMQARSQQTIQTLFKAAAQILDKEGEAGLSTNKVAAAAGFSIGTLYQYFPSKEVLIQAMAAR | 0.0662 |
| HMVAGPDEPLSDREQGVLDLLAEGLSNKAISKQLGISVATVKSHLSNIYGKLQAENRMQAVARARELGLM | -0.386 |
| HMDKFKDVGARIREARKVQKLSQADLAERLQISTSHMSDIENGKKNIGLDIFMRLTEALQVSADWLL | -0.567 |
| HMQGIPVTVTAERANLRSGPGTSFDKLGQVVQGDVLTLLEVQNDWYKVKTAEGKTAFVAAYLVNSP | 0.0179 |
| HMTSRFITTEEGTLYVDADGRKVSGWQTIDGSRYYFDEHGIRQSGTIEVNGETYVLDEDGVL | -1.51 |
| HMSKYGIAYSEVLEILKHIPIEDYNKIPRNEIELFETYADKDFTFNYDSSKTLEEQNVSNITKGIIIL | -0.465 |
| HMKTMTTIRKGSRGDTVATLQRKLNLIADGIFGPITDEAVRDFQKSHGLAVDGIVGPKTWAALGVGS | 0.354 |
| HMNSLQNNLKQARTRVGLTQGVLASQAGISRQAYSTLESGSANPSTEVALRLAQALQERVELLFYLPER | -0.609 |
